Where a chain is given by its changes, count along the chain named.
B1: 1B20 variant C8 (antibody, part only; not given: light chain, V domains shown, part only)
VH: QVQLVQSGAEVKKPGESLKISCKGSGYSFTNYYIAWVRQMPGKGLEWMGMIYPGDSYTSYSHRFQGQVTISADKSISTAYLQWSSLKASDTAMYYCARDHWYRPYFDIWGQGTLVTVSS
B2: 1B20 variant A6 (antibody, part only; not given: light chain, V domains shown, part only)
VH: QVQLVQSGAEVKKPGESLKISCKGSGYSFTNYYISWVRQMPGKGLEWMGLIYPGDSYTRYNPSFQGQVTISADKSISTAYLQWSSLKASDTAMYYCARDYYSRPFSDIWGQGTLVTVSS
B3: 1B20 variant G8 (antibody, part only; not given: light chain, probably the common parent VL, V domains shown, part only)
VH: B2 VH with N31D, R59H, S63N, Y100H, Y101W, R103K, F105Y, S106F, I108V
B4: 1B20 variant E5 (antibody, part only; not given: light chain, probably the common parent VL, V domains shown, part only)
VH: B2 VH with N31D, L50W, R59H, S63N, Y100R, Y101W, R103T, F105Y, S106F, I108V
B5: 1B20 variant B9 (antibody, part only; not given: light chain, V domains shown, part only)
VH: B2 VH with L50I, T58I, R59H, P62Q, S63N
B6: 1B20 variant E8 (antibody, part only; not given: light chain, probably the common parent VL, V domains shown, part only)
VH: B1 VH with A35T, S59R, H62P, R63K, Y102S, R103K, Y105L, F106S, I108V
B7: 1B20 variant B2 (antibody, part only; not given: light chain, probably the common parent VL, V domains shown, part only)
VH: B2 VH with R59N, S63N, Y100H, R103T, S106F, I108V
B8: 1B20 variant C6 (antibody, part only; not given: light chain, V domains shown, part only)
VH: B1 VH with A35T, S59H, S61N, H62P, R63S, R103K, Y105L
B9: 1B20 variant F4 (antibody, part only; not given: light chain, probably the common parent VL, V domains shown, part only)
VH: B2 VH with N31D, N61S, R103K, F105L, S106F, I108V
B10: 1B20 variant H4 (antibody, part only; not given: light chain, probably the common parent VL, V domains shown, part only)
VH: B2 VH with S35T, K43R, L50I, S63K, Y100H, Y101W, R103K, I108V
B11: 1B20 variant B6 (antibody, part only; not given: light chain, probably the common parent VL, V domains shown, part only)
VH: B2 VH with N31D, L50I, R59N, Y101W, S102Y
B12: 1B20 variant E3 (antibody, part only; not given: light chain, V domains shown, part only)
VH: B1 VH with N31D, A35S, H62P, H100Y, Y105F, F106S
B13: 1B20 variant F8 (antibody, part only; not given: light chain, probably the common parent VL, V domains shown, part only)
VH: B2 VH with L50M, R59N, P62Q, S63K, Y101W, F105Y
B14: 1B20 variant C7 (antibody, part only; not given: light chain, probably the common parent VL, V domains shown, part only)
VH: B1 VH with N31D, A35S, M50W, S59H, R63N, Y102S, Y105F, F106S, I108V
B15: 1B20 variant F2 (antibody, part only; not given: light chain, V domains shown, part only)
VH: B2 VH with S35A, L50V, S63K, Y101W, F105Y, S106F
B16: 1B20 variant A8 (antibody, part only; not given: light chain, probably the common parent VL, V domains shown, part only)
VH: B1 VH with A35S, S59H, H62P, R63N, H100Y, Y102S, R103K, I108V
B17: 1B20 variant B1 (antibody, part only; not given: light chain, probably the common parent VL, V domains shown, part only)
VH: B1 VH with N31D, A35S, M50I, S59H, H62P, R63N, H100Y, R103T, Y105F, I108V
B18: 1B20 variant B4 (antibody, part only; not given: light chain, probably the common parent VL, V domains shown, part only)
VH: B2 VH with N31D, R59H, S63N, Y101W, R103K, F105L, S106F, I108V
B19: 1B20 variant F5 (antibody, part only; not given: light chain, probably the common parent VL, V domains shown, part only)
VH: B1 VH with N31D, A35T, S59N, S61R, R63N, H100Y, Y102S
B20: 1B20 variant A1 (antibody, part only; not given: light chain, probably the common parent VL, V domains shown, part only)
VH: B2 VH with N31D, Y101W, R103K, F105L
B21: 1B20 variant A5 (antibody, part only; not given: light chain, probably the common parent VL, V domains shown, part only)
VH: B2 VH with N31D, L50W, R59H, S63M, Y100R, Y101W, F105Y, S106F
B22: 1B20 variant D5 (antibody, part only; not given: light chain, probably the common parent VL, V domains shown, part only)
VH: B1 VH with A35T, M50L, S59R, H62P, Y102S, F106S, I108V
B23: 1B20 variant D3 (antibody, part only; not given: light chain, V domains shown, part only)
VH: B2 VH with N31D, S35T, L50M, N61S, S63K, Y101W, R103K, S106F, I108V
B24: 1B20 variant F1 (antibody, part only; not given: light chain, probably the common parent VL, V domains shown, part only)
VH: B2 VH with N31D, R59N, N61S, S63K, Y100H, Y101W, R103K, F105L, I108V
B25: 1B20 variant B8 (antibody, part only; not given: light chain, V domains shown, part only)
VH: B1 VH with A35S, S59H, H62P, R63N, H100Y, Y102S, R103K, I108V
B26: 1B20 variant H7 (antibody, part only; not given: light chain, probably the common parent VL, V domains shown, part only)
VH: B1 VH with N31D, A35S, L45P, S59R, H62Q, R63K, M93I, Y102S, Y105L, F106S
B27: 1B20 variant E2 (antibody, part only; not given: light chain, probably the common parent VL, V domains shown, part only)
VH: B2 VH with P62R, S63K, F105L, I108V
B28: 1B20 variant C2 (antibody, part only; not given: light chain, probably the common parent VL, V domains shown, part only)
VH: B1 VH with N31D, M50L, S61N, H62P, H100Y, Y102S, R103T
B29: 1B20 variant A3 (antibody, part only; not given: light chain, V domains shown, part only)
VH: B1 VH with N31D, A35S, S59R, H62P, R63N, Y105L, F106S
B30: 1B20 variant A9 (antibody, part only; not given: light chain, probably the common parent VL, V domains shown, part only)
VH: B1 VH with A35S, S59R, H62P, R63K, F106S
B31: 1B20 variant G6 (antibody, part only; not given: light chain, probably the common parent VL, V domains shown, part only)
VH: B2 VH with N31D, S35N, L50M, R59N, S63K, M93I, Y100H, Y101W, I108V
B32: 1B20 variant E1 (antibody, part only; not given: light chain, probably the common parent VL, V domains shown, part only)
VH: B1 VH with A35S, S61N, H62P, R63N, Y102S, R103K, Y105F
B33: 1B20 variant H8 (antibody, part only; not given: light chain, probably the common parent VL, V domains shown, part only)
VH: B1 VH with N31D, A35S, S59H, H62Q, R63N, Y102S, Y105F, I108V
B34: 1B20 variant C1 (antibody, part only; not given: light chain, probably the common parent VL, V domains shown, part only)
VH: B1 VH with A35S, S59R, H62P, R63K, F106S
B35: 1B20 variant G7 (antibody, part only; not given: light chain, probably the common parent VL, V domains shown, part only)
VH: B1 VH with N31D, A35S, M50W, S59H, H62P, R63S, Y102S, R103K, I108V
B36: 1B20 variant D8 (antibody, part only; not given: light chain, V domains shown, part only)
VH: B1 VH with N31D, A35S, S59H, H62Q, R63S, Y105L
B37: 1B20 variant E4 (antibody, part only; not given: light chain, probably the common parent VL, V domains shown, part only)
VH: B2 VH with L50W, R59S, P62Q, S63K, Y101W, R103K, F105Y, I108V
B38: 1B20 variant D4 (antibody, part only; not given: light chain, probably the common parent VL, V domains shown, part only)
VH: B2 VH with N31D, S35A, L50I, S63K, Y101W, I108V
B39: 1B20 variant B3 (antibody, part only; not given: light chain, probably the common parent VL, V domains shown, part only)
VH: B1 VH with A35S, S61N, H62P, R63K, Y102S, R103K
B40: 1B20 variant F7 (antibody, part only; not given: light chain, V domains shown, part only)
VH: B2 VH with S35A, L50I, R59H, S63K, Y100H, Y101W, I108V
B41: 1B20 variant F6 (antibody, part only; not given: light chain, probably the common parent VL, V domains shown, part only)
VH: B2 VH with R59H, Y100H, Y101W, S102Y, R103K
B42: 1B20 variant H5 (antibody, part only; not given: light chain, probably the common parent VL, V domains shown, part only)
VH: B1 VH with N31D, A35S, M50I, H62P, H100Y, Y102S, Y105L, I108V
B43: 1B20 variant G4 (antibody, part only; not given: light chain, probably the common parent VL, V domains shown, part only)
VH: B1 VH with A35S, M50L, S59R, H62P, W101G, R103K, F106S
B44: 1B20 variant C3 (antibody, part only; not given: light chain, probably the common parent VL, V domains shown, part only)
VH: B2 VH with Q3K, S35A, L50I, R59H, S63K, Y100H, Y101G, S102Y, R103K
B45: 1B20 variant H1 (antibody, part only; not given: light chain, probably the common parent VL, V domains shown, part only)
VH: B2 VH with N31D, S35A, L50I, S63R, Y101W, R103K, F105L
B46: 1B20 variant A7 (antibody, part only; not given: light chain, V domains shown, part only)
VH: B2 VH with L50I, S63N, Y101W, R103K, F105L, I108V
B47: 1B20 variant G5 (antibody, part only; not given: light chain, V domains shown, part only)
VH: B2 VH with N31D, N61S, S63N, Y100H, Y101G, S102Y, F105Y
B48: 1B20 variant B5 (antibody, part only; not given: light chain, probably the common parent VL, V domains shown, part only)
VH: B2 VH with N31D, L50M, N61S, W83S, Y101W, S102Y, R103K, I108V
B49: 1B20 variant G3 (antibody, part only; not given: light chain, probably the common parent VL, V domains shown, part only)
VH: B2 VH with S63K, F105Y, I108V
B50: 1B20 variant G2 (antibody, part only; not given: light chain, probably the common parent VL, V domains shown, part only)
VH: QVKLVQSGAEVKKPGESLKISCKGSGYSFTDYYISWVRQMPGKGLEWMGIIYPGDSYTHYNPKFQGQVTISADKSISTAYLQWSSLKASDTAMYYCARDRWSKPLFDVWGQGTLVTVSS
B51: 1B20 variant A4 (antibody, part only; not given: light chain, probably the common parent VL, V domains shown, part only)
VH: B50 VH with K3Q, I50S, N61S, P62H, M93I, R100H, K103R, L105F
B52: 1B20 variant H3 (antibody, part only; not given: light chain, probably the common parent VL, V domains shown, part only)
VH: B1 VH with A35T, S59H, H62Q, M93I, Y102S, Y105L, I108V

biological target: PCSK9; assay: Biacore SPR

Kd | Binder
3.73 nM | B1
1.39 nM | B2
1.51 nM | B3
4.22 nM | B4
3.81 nM | B5
1.62 nM | B6
2.21 nM | B7
2.1 nM | B8
3.14 nM | B9
1.52 nM | B10
2.88 nM | B11
2.62 nM | B12
1.35 nM | B13
2.53 nM | B14
1.01 nM | B15
1.19 nM | B16
3.73 nM | B17
2.01 nM | B18
2.41 nM | B19
2.15 nM | B20
6.81 nM | B21
1.6 nM | B22
2.68 nM | B23
3.47 nM | B24
4.47 nM | B25
4.9 nM | B26

Kd | Binder
2.62 nM | B27
2.25 nM | B28
7.93 nM | B29
1.95 nM | B30
2.2 nM | B31
1.36 nM | B32
1.35 nM | B33
1.65 nM | B34
2.05 nM | B35
3.21 nM | B36
2.38 nM | B37
1.91 nM | B38
1.21 nM | B39
1.26 nM | B40
2.68 nM | B41
2.41 nM | B42
2.9 nM | B43
4.5 nM | B44
2.01 nM | B45
1.28 nM | B46
1.65 nM | B47
1.36 nM | B48
1.53 nM | B49
2.11 nM | B50
2.15 nM | B51
1.89 nM | B52

Reference: patent US20130071379A1
